Measurements from article PMC2911679 (Biochemical Journal, 2010).

Key:
[1] = biological target: biotin-labelled calmodulin (CaM) (UniProt P0DP23 1-149, biotin (site not stated)); assay: AlphaScreen or HTRF
[2] = biological target: biotinylated Impβ1 (GST-fusion protein, biotinylated with sulfo-NHS-biotin) (UniProt P70168 1-876, biotin (sulfo-NHS-biotin reagent; sites not stated)); assay: AlphaScreen or HTRF
Sequence of biotinylated Impβ1 (GST-fusion protein, biotinylated with sulfo-NHS-biotin) (P70168 whole entry, the tested form may be a part): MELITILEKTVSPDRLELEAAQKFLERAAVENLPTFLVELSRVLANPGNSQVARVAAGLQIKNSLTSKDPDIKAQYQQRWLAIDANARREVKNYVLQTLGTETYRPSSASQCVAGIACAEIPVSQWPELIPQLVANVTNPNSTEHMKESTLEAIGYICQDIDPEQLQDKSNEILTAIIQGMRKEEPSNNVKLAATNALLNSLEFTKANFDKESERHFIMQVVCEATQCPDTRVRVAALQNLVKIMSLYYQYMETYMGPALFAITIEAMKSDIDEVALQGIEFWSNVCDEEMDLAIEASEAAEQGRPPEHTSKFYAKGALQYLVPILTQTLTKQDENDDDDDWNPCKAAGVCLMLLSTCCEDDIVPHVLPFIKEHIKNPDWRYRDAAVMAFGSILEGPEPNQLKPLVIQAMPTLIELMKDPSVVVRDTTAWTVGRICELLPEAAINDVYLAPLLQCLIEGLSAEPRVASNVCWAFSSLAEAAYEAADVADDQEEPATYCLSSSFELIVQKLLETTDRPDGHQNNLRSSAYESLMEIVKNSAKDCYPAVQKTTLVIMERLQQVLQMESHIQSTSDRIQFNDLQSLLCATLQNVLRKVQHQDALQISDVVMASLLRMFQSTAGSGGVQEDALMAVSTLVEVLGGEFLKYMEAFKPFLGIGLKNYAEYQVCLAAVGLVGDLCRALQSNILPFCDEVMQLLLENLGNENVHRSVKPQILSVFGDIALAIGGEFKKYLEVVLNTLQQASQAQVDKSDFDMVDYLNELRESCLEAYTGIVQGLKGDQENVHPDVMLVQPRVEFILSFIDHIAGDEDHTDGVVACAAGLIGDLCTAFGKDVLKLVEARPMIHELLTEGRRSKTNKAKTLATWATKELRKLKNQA

B1: His6-tagged GFP–SRY-HMG, wild type (SRY residues 55–141) (domain or fragment)
chain: not shown
Which results are given for B1?
Kd [1]: 0.43 nM; Kd [2]: 0.94 nM

B2: His6-tagged GFP–SRY-HMG Y127C (SRY residues 55–141) (domain or fragment)
chain: not shown
With B2 as the binder, how does the Kd [1] read?
The Kd was 0.62 nM.

And the Kd [2]?
The Kd was 3.6 nM.

B3: His6-tagged GFP–SRY-HMG M64T (SRY residues 55–141) (domain or fragment)
chain: not shown
With B3 as the binder, how does the Kd [2] read?
Its Kd is 1.42 nM.

B4: His6-tagged GFP–SRY-HMG F67V (SRY residues 55–141) (domain or fragment)
chain: not shown
Which Kd [2] does the source give for B4 here?
Its Kd is 1.09 nM.

B5: His6-tagged GFP–SRY-HMG R76P (SRY residues 55–141) (domain or fragment)
chain: not shown
B5 was tested. Which Kd [2] did it give?
The Kd was 0.89 nM.
